Reference: US20060140946A1

Target: human lymphotoxin (TNFβ) (human) (UniProt P01374)
Assay: cell-based or functional assay

Sequence of human lymphotoxin (TNFβ) (human) (P01374 35-205 limits assumed): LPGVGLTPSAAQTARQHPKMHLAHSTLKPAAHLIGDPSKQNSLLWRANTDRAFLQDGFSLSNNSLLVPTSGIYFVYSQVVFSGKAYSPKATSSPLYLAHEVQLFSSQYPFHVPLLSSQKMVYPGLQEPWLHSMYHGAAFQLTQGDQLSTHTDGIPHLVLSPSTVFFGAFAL

“p75P-sf2 TNF receptor/IgG1 fusion protein (from UniProt P20333 23-204) (Fc fusion)” was tested, and the concentration required to half-inhibit human TNFβ at 2 pM, WEHI 164 cytotoxicity assay was 31 pM.
